Patent publication US20180362582A1 (SOCPRA SCIENCES SANT ET HUMAINES S E C, published 2018)
Blank lines part the entries; values can stand above or below the binder they belong to. Numbered stars: 1 amine (or outer) side, 2 acyl side, 3 side chain; on linkers, the order of the positions; unused ones are H or OH. Bridge positions count the residues as written; N and C are the ends. Square brackets hold non-standard residues; d marks the D form. Ends that are not written are not given here. * marks the point of attachment. nonenoic acid = non-8-enoic acid residue (acyl cap with no amine) whose terminal alkene closes the ring by metathesis with the o-allyl-tyrosine, C=CCCCCCCC(=O)*; Tyr(3-All) = 3-allyl-tyrosine (allyl on ring carbon ortho to the phenol OH), C=CCc1cc(C[C@H](N[*:1])C(=O)[*:2])ccc1O[*:3]; OctenylA = alpha-methyl-octenylalanine = 2-(7-octenyl)alanine; 6‑(allylamino)hexanoyl = C=CCNCCCCCC(=O)*

Key:
[1] = molecular target: hNTS1-Green fluorescent protein 10(GFP10) (human (printed as hNTS1), UniProt P30989 1-418); test: cell-based or functional assay
[2] = molecular target: T1, rat NTS2-YFP receptor (rat, UniProt Q63384 1-416); test: competitive radioligand binding, 125I-[Tyr3]-NT, DRG-F11 membranes expressing rNTS2-YFP
T1 construct: whole, on cells; Used as cell membranes of transfected DRG-F11 cells; also called rNTS2-YFP; rNTS2
T1 sequence (Q63384 whole entry, looked up): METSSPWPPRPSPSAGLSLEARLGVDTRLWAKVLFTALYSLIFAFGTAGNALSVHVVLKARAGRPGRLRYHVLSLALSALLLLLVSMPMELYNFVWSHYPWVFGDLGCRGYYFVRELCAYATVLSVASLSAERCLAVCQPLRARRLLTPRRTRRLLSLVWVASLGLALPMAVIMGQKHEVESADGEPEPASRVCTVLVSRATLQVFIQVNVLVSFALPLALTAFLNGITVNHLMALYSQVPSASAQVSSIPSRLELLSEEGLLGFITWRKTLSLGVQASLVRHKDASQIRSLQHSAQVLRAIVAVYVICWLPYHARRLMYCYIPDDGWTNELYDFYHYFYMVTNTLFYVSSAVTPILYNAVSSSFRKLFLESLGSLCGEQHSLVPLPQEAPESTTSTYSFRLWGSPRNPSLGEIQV
Description: (§1) DRG-F11 cells were cultured in DMEM supplemented with 10% FBS, 100 U/mL penicillin, 100 μg/mL streptomycin, and 20 mM HEPES. DRG-F11 were seeded at 2.2×10⁶ cells in a 10 cm Petri dish and transfected 24 h after plating with 10 μg of DNA coding for the rat NTS2-YFP receptor using Xtreme Gene™ HP as a transfection agent. Membrane preparation was conducted 48 h after transfection, as described below.
(§2) Transfected cells expressing the rNTS2-YFP receptor were used 48 h after transfection. Membranes were prepared by scraping cells off the culture dish with 50 mM Tris ph 7.5 and centrifuged at 15,000 g for 5 min at 4° C. The pellet was resuspended in 10 mM Tris, 1 mM EDTA pH 7.5 and sonicated for 30 s prior to be centrifugated at 15,000 g for 30 min at 4° C. The pellet was then re-suspended in binding 9 buffer. […] All other steps in binding experiments were unchanged comparing to the one using the NTS1 receptor.

[3] = molecular target: T1, rat NTS2-YFP receptor; test: displacement of radiolabeled neurotensin from rNTS2-YFP membranes by a single 1 µM dose
Description: as §1, §2

[4] = molecular target: T2, hNTS1 receptor (human (printed as hNTS1), UniProt P30989 1-418); test: competitive radioligand binding, 125I-[Tyr3]-NT, CHO-K1 membranes expressing hNTS1; Ki by Cheng-Prusoff
T2 construct: whole, on cells; also called neurotensin 1 (NTS1) receptor

[5] = molecular target: rat NTS2-YFP receptor (rat, UniProt Q63384 1-416); test: displacement of radiolabeled neurotensin from rNTS2-YFP membranes by a single 1 µM dose
Description: as §1, §2

[6] = molecular target: T2, hNTS1 receptor; test: cell-based or functional assay
[7] = molecular target: T2, hNTS1 receptor; test: competitive radioligand binding, 125I-[Tyr3]-NT, CHO-K1 membranes expressing hNTS1

T2 sequence (P30989 whole entry): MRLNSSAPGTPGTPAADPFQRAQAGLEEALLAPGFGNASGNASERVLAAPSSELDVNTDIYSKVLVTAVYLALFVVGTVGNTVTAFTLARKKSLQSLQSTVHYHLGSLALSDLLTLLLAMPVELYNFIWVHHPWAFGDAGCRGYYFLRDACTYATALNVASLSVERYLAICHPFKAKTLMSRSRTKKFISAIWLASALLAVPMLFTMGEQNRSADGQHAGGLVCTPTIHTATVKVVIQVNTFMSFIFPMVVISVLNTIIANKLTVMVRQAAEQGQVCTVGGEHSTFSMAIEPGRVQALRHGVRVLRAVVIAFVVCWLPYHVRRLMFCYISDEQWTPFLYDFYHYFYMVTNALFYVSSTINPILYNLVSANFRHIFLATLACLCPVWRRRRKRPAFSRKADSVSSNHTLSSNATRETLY
hNTS1-Green fluorescent protein 10(GFP10), sequence (P30989 whole entry): as above

B1: 6 c[aminohex-6-enoic acid(All)KPY(All)]IL (peptide)
peptide: {6‑(allylamino)hexanoyl}-KP[Tyr(3-All)]IL
modifications: staple (positions not given here); not fully specified (bridges)
notes: also called compound 6
EC50 β-arr1 [1]: 96 nM
IC50 [2]: 2300 nM
% displ at 1 µM [3]: 93%
Ki [4]: 0.656 µM

B2: 3 c[OctenylAKPY(All)]IL (peptide)
peptide: [OctenylA]KPXIL
modifications: staple 1-4; not fully specified (residue 4); printed as 3 c[OctenylAKPY(All)]IL
notes: Diastereoisomer of compound 12; also called compound 3
% displ at 1 µM [3]: 96%

B4: NT 8-13 RRPYIL (peptide)
peptide: RRPYIL
notes: also called neurotensin (8-13)
% displ at 1 µM [5]: 100%

B5: 10 c[K(pentenyl)KPY(All)]IL (peptide)
peptide: XKPXIL
modifications: residue 1 is N-pentenyl-lysine; Tyr is o-allyl-tyrosine; the two joined by ring-closing metathesis; 25 ring atoms
notes: also called compound 10
IC50 [2]: 128 nM
% displ at 1 µM [3]: 105%

Second part, the binder after the results:

IC50 [2]: 47.2 nM
% displ at 1 µM [3]: 104%
B3: 9 c[K(butenyl)KPY(All)]IL (peptide)
peptide: XKPXIL
modifications: residue 1 is N-butenyl-lysine; Tyr is o-allyl-tyrosine; the two joined by ring-closing metathesis; 24 ring atoms
notes: also called compound 9

EC50 G13 [6]: 433 nM
EC50 β-arr1 [1]: 1500 nM
IC50 [7]: 394 nM
Ki [4]: 5.6 µM
B6: 1-M (or 1) c[nonenoic acid KPY(All)]IL (peptide)
peptide: {nonenoic acid}-KP[Tyr(3-All)]IL
modifications: staple (positions not given here); not fully specified (bridges)
notes: Macrocycle; E and Z isomers were not separated; also called compound 1
